The text below walks through data of patent publication US9803013B2, “Biological materials and uses thereof” (BioInvent International AB, priority 2005, dated 2017).

One assay deals with Ramos B lymphoma cells. In words: scFv apoptosis assay (cross-linked, 24 h, Annexin V/PI). Format: cell-based, human. As for the experimental part: Ramos B lymphoma cells were sequentially incubated with anti-Ramos scFv, anti-His mAb, and anti-mouse polyclonal Ab on ice (with intermittent washing to remove excess unbound antibody), and were incubated in a humidified atmosphere of 5% CO2 at 37° C. for 24 hours. Cells were then harvested and subjected to combined staining with Annexin V-AF488 (AV) and propidium iodide (PI). Cells were scored as viable (AV− PI−, filled circles FIG. 2C), early apoptotic (AV+PI−, open triangles FIG. 2C), or late apoptotic/necrotic (AV+PI+, open diamonds FIG. 2C), based on differential positivity for AV and PI staining (defined by square gates in FIG. 2B). […]
Lipopolysaccharide levels of recombinantly produced scFv fragments were reduced using Detoxigel columns according to manufacturer's instructions (Pierce Biotechnology, Rockford, Ill., USA). Remaining endotoxin levels were quantified by the LAL-amebocyte lysate assay (Cambrex Bioscience, Walkersville, Md., USA). […]
Apoptotic cells were, unless otherwise stated, detected by combined staining with Annexin V Alexa Fluor 488 (AV) and Propidium Iodide (PI) (both from Molecular Probes, Invitrogen) and subsequent flow-cytometric analysis, Cells were defined as viable (AV−/PI−), early apoptotic (AV+/PI−) or late apoptotic/necrotic (AV+/PI+). […]

Another assay deals with Raji B lymphoma cells. Described as above. In kind it is cell-based, human.

B1: scFv B11: scFv clone isolated by differential biopanning, later converted to B11 IgG1 (protein)
scFv (part 1 of 2): EVQLLESGGGLVQPGGSLRLSCAASGFTFSNAWMSWVRQAPGKGLEWVAFIWYDGSNKYYADSVKGRFTISRDNSKNTLYLQMNSLRAEDTAVYYCARYSGWYFDYWGQGTLVTVSS
scFv (part 2 of 2): QSVLTQPPSASGTPGQRVTISCTGSSSNIGAGYDVHWYQQLPGTAPKLLIYDNNNRPSGVPDRFSGSKSGTSASLAISGLRSEDEADYYCQSYDSSLSAWLFGGGTKLTVLG
modifications: left off: small tags and cut ends
notes: scFv clone isolated by differential biopanning, later converted to B11 IgG1
For the molecule B1, the “apoptosis induction by scFv” value in the assay with Ramos B lymphoma cells and in the assay on Raji B lymphoma cells was “induced significant apoptosis” throughout.
